Experimental data as given in US20190002511A1.

Experiments:
[1] = target: human α-thrombin (recombinant) (human) (UniProt P00734); experiment: assay not named
[2] = target: human α-thrombin (recombinant) (human) (UniProt P00734); experiment: cell-based or functional assay

β-variegin (peptide)
Ki [1]: > 30 nM
time to observe clot formation in blood tubes, 300 µM peptide [2]: 4 h
